Experimental data taken from patent US20230065226A1.

Target: mouse chemokine receptors (mouse)
Experiment: cell-based or functional assay

B1: (LD78β(C11S)Fv^315)2 vaccibody (protein, part only; not given: IgG3 hinge, CH3, scFv carrier, not shown: another chain or arm of the molecule; a dimerising Fc or GST; large carriers; small tags and cut ends)
chain: APLAADTPTASCFSYTSRQIPQNFIADYFETSSQCSKPSVIFLTKRGRQVCADPSEEWVQKYVSDLELSA
modifications: not fully specified (C-terminus); ends and bridges not checked; also: covalent homodimer via IgG3 hinge disulfides, C-terminal carrier (IgG3 hinge, CH3, scFv315) not in chain
How did the ability to stimulate T cells (proliferation of Id^315-specific Th2 cells with BALB/c splenocytes as APC) turn out when B1 was run?
Its ability to stimulate T cells (proliferation of Id^315-specific Th2 cells with BALB/c splenocytes as APC) is 100 fold.
